Measured values taken from patent US20090098111.

Columns and labels:
[1] = system: GST-XtopBP1 (972-1279)-W1138R
[2] = system: GST-XtopBP1 (972-1279) ΔRQLQ
[3] = system: His6-XtopBP1 (full-length)
[4] = system: GST-XtopBP1 (972-1279) ΔWDDP
[5] = system: His6-XtopBP1-W1138R (full-length)
His6-XtopBP1-W1138R (full-length), sequence (chain, as listed by the source W1138R): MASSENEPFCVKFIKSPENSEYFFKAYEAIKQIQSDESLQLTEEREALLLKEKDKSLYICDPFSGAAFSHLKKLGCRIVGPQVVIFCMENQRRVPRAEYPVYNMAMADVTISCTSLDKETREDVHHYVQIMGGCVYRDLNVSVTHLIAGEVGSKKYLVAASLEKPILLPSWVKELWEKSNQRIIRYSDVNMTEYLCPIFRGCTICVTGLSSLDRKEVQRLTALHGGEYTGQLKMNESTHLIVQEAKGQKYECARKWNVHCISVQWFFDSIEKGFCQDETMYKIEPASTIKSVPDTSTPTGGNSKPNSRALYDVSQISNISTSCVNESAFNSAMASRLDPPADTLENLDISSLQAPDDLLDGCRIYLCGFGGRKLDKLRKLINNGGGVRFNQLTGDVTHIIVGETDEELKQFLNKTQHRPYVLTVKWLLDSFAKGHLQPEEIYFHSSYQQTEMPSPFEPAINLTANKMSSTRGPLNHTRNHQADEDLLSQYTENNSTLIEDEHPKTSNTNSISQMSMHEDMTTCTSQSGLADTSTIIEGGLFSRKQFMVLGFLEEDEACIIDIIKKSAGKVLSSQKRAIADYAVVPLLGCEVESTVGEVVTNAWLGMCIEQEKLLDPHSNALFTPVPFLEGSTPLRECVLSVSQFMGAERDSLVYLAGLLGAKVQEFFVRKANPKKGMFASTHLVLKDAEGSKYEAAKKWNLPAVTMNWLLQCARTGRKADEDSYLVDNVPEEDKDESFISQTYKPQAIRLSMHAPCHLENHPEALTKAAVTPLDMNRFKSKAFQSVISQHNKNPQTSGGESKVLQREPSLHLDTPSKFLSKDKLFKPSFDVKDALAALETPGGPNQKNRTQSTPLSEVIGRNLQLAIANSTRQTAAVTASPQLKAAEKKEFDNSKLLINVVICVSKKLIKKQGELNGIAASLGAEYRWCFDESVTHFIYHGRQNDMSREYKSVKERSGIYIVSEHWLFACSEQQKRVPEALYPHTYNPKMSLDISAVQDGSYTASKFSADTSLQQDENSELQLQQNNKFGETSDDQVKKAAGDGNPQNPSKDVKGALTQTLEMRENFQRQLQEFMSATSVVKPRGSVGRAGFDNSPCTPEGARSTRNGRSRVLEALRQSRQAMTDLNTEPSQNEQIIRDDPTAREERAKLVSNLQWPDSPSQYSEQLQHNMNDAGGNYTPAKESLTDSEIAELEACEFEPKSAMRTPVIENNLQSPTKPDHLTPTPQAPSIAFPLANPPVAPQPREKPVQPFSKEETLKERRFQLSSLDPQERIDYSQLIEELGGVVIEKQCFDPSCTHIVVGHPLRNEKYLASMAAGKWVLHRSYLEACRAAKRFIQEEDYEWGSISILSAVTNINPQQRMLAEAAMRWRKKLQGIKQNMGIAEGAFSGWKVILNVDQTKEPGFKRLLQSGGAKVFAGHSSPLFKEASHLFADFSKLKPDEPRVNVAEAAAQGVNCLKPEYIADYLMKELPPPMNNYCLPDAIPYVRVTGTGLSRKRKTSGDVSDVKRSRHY

Xatr (endogenous Xenopus ATR in egg extracts), sequence (chain, as listed by the source): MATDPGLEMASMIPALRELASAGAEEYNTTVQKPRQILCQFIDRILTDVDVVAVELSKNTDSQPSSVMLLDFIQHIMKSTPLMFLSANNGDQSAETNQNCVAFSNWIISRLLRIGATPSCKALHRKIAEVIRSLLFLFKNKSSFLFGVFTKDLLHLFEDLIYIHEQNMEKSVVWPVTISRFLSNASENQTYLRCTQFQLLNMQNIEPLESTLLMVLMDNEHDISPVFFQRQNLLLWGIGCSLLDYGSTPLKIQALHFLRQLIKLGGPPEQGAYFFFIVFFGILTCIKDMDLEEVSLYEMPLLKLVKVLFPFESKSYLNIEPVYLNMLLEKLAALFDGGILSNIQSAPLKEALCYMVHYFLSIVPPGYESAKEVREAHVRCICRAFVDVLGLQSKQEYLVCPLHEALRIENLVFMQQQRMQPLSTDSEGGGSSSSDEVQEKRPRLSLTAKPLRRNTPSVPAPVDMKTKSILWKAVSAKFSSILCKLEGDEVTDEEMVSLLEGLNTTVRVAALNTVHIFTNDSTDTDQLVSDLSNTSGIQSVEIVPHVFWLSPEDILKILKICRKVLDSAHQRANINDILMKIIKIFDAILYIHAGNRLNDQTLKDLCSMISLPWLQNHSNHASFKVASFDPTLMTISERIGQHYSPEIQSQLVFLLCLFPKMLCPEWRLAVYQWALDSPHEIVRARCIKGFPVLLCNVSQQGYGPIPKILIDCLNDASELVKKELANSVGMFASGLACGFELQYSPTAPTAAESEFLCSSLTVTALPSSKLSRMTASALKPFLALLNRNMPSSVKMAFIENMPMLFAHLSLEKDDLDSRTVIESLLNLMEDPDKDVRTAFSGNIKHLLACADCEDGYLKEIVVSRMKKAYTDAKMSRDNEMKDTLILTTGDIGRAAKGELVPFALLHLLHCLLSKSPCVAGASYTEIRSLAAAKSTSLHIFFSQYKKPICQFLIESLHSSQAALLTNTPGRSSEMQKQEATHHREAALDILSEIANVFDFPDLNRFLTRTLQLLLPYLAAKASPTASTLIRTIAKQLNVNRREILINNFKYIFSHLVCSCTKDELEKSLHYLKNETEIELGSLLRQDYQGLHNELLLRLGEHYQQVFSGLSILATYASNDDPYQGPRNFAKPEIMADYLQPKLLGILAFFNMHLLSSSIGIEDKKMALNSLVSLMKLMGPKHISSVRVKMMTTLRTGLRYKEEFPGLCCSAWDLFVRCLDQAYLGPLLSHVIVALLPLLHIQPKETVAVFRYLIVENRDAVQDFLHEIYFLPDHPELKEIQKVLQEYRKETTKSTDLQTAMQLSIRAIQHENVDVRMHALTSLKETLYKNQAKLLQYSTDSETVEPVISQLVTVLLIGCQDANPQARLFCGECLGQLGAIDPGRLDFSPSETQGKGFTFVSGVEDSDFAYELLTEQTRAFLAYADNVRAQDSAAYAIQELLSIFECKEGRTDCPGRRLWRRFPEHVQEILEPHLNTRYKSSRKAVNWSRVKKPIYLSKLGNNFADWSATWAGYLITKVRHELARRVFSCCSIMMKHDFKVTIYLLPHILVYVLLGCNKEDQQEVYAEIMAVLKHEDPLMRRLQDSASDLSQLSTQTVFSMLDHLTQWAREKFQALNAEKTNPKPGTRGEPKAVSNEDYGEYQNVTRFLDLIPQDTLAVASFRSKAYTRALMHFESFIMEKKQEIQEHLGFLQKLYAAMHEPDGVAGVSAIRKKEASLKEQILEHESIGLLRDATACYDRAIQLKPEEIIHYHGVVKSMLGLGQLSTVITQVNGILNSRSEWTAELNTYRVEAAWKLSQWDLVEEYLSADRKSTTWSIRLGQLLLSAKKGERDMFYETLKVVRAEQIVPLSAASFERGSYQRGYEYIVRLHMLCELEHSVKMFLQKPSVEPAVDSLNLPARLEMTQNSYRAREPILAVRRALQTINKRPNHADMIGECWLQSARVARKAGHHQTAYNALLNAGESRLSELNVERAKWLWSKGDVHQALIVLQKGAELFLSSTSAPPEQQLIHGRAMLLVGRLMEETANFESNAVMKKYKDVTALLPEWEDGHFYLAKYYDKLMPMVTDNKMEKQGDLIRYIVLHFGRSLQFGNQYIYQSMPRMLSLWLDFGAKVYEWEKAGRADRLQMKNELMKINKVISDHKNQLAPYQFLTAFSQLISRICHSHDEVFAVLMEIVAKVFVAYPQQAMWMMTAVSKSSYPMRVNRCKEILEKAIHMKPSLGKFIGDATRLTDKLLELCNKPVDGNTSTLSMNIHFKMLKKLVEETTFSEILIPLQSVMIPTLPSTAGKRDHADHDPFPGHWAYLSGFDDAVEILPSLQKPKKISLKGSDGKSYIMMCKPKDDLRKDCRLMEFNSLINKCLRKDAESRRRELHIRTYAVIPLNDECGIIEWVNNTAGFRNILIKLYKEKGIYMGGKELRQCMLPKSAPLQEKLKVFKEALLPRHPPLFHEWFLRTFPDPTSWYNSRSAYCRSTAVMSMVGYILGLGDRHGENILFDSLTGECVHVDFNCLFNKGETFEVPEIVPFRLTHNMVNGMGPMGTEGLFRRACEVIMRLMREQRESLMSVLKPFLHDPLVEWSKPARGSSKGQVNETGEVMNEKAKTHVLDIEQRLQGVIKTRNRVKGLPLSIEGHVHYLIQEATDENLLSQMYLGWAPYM
GST-XtopBP1 (972-1279), sequence (chain, as listed by the source): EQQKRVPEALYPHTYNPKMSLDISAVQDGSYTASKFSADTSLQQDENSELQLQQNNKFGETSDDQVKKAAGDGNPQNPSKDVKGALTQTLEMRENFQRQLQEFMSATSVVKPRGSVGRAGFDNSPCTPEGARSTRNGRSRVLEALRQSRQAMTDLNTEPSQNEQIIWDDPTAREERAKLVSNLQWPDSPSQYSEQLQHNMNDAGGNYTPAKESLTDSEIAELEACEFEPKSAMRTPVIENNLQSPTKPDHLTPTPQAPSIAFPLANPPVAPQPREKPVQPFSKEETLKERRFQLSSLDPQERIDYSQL
GST-XtopBP1 (1197-1513), sequence (chain, as listed by the source): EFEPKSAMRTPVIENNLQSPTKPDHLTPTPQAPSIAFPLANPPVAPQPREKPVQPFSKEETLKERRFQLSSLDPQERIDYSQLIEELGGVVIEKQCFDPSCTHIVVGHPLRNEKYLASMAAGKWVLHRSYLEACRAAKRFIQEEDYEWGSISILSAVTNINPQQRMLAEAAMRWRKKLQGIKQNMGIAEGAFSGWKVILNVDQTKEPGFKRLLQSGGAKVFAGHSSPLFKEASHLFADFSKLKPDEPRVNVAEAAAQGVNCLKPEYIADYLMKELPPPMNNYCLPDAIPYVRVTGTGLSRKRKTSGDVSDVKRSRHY
GST-XtopBP1 (972-1279)-W1138R, sequence (chain, as listed by the source W1138R): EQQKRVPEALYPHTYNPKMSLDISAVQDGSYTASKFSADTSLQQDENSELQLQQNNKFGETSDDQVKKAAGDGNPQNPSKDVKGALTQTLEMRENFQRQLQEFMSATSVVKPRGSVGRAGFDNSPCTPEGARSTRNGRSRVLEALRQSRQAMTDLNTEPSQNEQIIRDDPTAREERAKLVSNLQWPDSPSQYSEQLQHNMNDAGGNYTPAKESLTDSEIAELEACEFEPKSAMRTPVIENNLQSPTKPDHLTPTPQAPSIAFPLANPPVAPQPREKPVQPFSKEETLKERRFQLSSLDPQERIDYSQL

For “Xatr (endogenous Xenopus ATR in egg extracts)”, the “phosphorylation of 35S-Xchk1 in egg extracts (electrophoretic mobility)” value (from here on “phosphorylation of 35S-Xchk1”) (GST-XtopBP1 (1197-1513)) was “the GST-XtopBP1 (1197-1513) fragment, which does not activate Xatr, did not induce any phosphorylation of Xchk1 in egg extracts”, the “phosphorylation of 35S-Xchk1” value [1] was “none of the ΔRQLQ, ΔWDDP, or W1138R mutants of the 972-1279 fragment could induce ectopic activation of Xchk1 in these extracts” and the “phosphorylation of 35S-Xchk1” value [2] was “none of the ΔRQLQ, ΔWDDP, or W1138R mutants of the 972-1279 fragment could induce ectopic activation of Xchk1 in these extracts”. For the same substance, the “checkpoint-dependent phosphorylation of Xchk1 in XtopBP1-depleted egg extracts with aphidicolin” value [3] was “addition of wild-type His6-XtopBP1 to the XtopBP1-depleted extract was able to rescue the phosphorylation of Xchk1 fully”, the “phosphorylation of 35S-Xchk1” value [4] was “none of the ΔRQLQ, ΔWDDP, or W1138R mutants of the 972-1279 fragment could induce ectopic activation of Xchk1 in these extracts” and the “checkpoint-dependent phosphorylation of Xchk1 in XtopBP1-depleted egg extracts with aphidicolin” value [5] was “the W1138R mutant could not restore the phosphorylation of Xchk1”. For the same substance, the “phosphorylation of 35S-Xchk1” value (GST-XtopBP1 (972-1279)) was “the 972-1279 fragment could elicit a very robust phosphorylation of Xchk1”.
